According to article PMC10986557, “Inhibition of SARS-CoV-2 replication by a ssDNA aptamer targeting the nucleocapsid protein”:

Molecular target: Nucleocapsid (N) protein (SARS-CoV-2 original strain, UniProt P0DTC9 1-419)
Assay: flow cytometry (bead-immobilized protein); 1x SB
Settings: protein: recombinant; tags: His6 (pET28a); chain copies: 2

B1: N-Apt17 (ssDNA)
DNA: GCTGGATGTTCATGCTGGCAAAAGGTGTCACTCCATTCCTTAGGGGCACCGGAAGCATCTCTTTACTTTGACACATCCAGC
binding result: binds
